A word on the Kd: it is the free concentration of one partner at which half of the binding sites on the other are occupied at equilibrium, for simple one-to-one binding.

The target in test [1] is T1, circularly permuted human TfR apical domain (human).
T1 construct: TfR residues 326-379 stand N-terminal to 194-296, loop 297-325 deleted; also called huTfR Apical Domain
T1 chain: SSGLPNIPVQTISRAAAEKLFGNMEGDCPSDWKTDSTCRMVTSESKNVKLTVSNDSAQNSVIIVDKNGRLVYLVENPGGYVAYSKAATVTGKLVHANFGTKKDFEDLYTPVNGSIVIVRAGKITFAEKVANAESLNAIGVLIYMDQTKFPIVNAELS
The test can be described thus: SPR, supernatant, anti-Fab capture. The protocol:
(§1) Clones were expressed in HEK293 cells. Supernatants were captured for SPR by GE Healthcare anti-human Fab capture kit and the affinity to human and cyno TfR apical domain was measured (Table 30). The clones in Table 30 were bivalent and each TfR-binding Fc polypeptide also contained P329G and LALA mutations.
A general note: In SPR one partner is held on a chip, and binding of the other changes the refractive index at the surface.

The target in test [2] is T2, circularly permuted cyno TfR apical domain (cynomolgus monkey).
T2 construct: same design as the human construct; also called cyTfR Apical Domain; cynomolgus TfR apical domain
T2 chain: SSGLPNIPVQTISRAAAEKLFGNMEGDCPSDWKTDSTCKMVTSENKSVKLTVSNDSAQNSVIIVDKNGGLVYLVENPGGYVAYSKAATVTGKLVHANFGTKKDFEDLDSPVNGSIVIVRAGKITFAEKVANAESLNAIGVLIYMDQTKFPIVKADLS
The test can be described thus: SPR, supernatant, anti-Fab capture. The procedure: as §1

B1: 42.8.96 (Fc fusion)
chain: APEAAGGPSVFLFPPKPKDTLMISRTPEVTCVVVDVSHEDPEVKFNWYVDGVEVHNAKTKPREEQYNSTYRVVSVLTVLHQDWLNGKEYKCKVSNKALGAPIEKTISKAKGQPREPQVYTLPPSRDELTKNQVSLTCLVKGFYPSDIAVEWFSEASKLSNYKTTPPVLDSDGSFFLYSKLTVDKSRWQQGNLFACEVMHEALHNHYTYKLLSLSPGK
notes: bivalent; P329G+LALA
Regarding B1, the dissociation constant Kd in test [1] worked out at 9.44 µM; in test [2], 21.9 µM.

B2: 42.8.112 (Fc fusion)
chain: APEAAGGPSVFLFPPKPKDTLMISRTPEVTCVVVDVSHEDPEVKFNWYVDGVEVHNAKTKPREEQYNSTYRVVSVLTVLHQDWLNGKEYKCKVSNKALGAPIEKTISKAKGQPREPQVYTLPPSRDELTKNQVSLTCLVKGFYPSDIAVEWFYGGQKLNNYKTTPPVLDSDGSFFLYSKLTVDKSRWQQGNLFACEVMHEALHNHYTYKLLSLSPGK
notes: bivalent; P329G+LALA
On to B2, for which the Kd in test [1] came to 1.14 µM; in test [2], 13.3 µM.

B3: 42.8.114 (Fc fusion)
chain: APEAAGGPSVFLFPPKPKDTLMISRTPEVTCVVVDVSHEDPEVKFNWYVDGVEVHNAKTKPREEQYNSTYRVVSVLTVLHQDWLNGKEYKCKVSNKALGAPIEKTISKAKGQPREPQVYTLPPSRDELTKNQVSLTCLVKGFYPSDIAVEWFYGGQKLSNYKTTPPVLDSDGSFFLYSKLTVDKSRWQQGNLFACEVMHEALHNHYTYKLLSLSPGK
notes: bivalent; P329G+LALA
B3: the Kd in test [1] was 1.81 µM; in test [2], 18.3 µM.

B4: 42.8.109 (Fc fusion)
chain: APEAAGGPSVFLFPPKPKDTLMISRTPEVTCVVVDVSHEDPEVKFNWYVDGVEVHNAKTKPREEQYNSTYRVVSVLTVLHQDWLNGKEYKCKVSNKALGAPIEKTISKAKGQPREPQVYTLPPSRDELTKNQVSLTCLVKGFYPSDIAVEWFYGGQKENNYKTTPPVLDSDGSFFLYSKLTVDKSRWQQGNLFACEVMHEALHNHYTYKLLSLSPGK
notes: bivalent; P329G+LALA
Consider B4, for which the dissociation constant (Kd) in test [1] stood at 2.02 µM; in test [2], 13.6 µM.

B5: 42.8.127 (Fc fusion)
chain: APEAAGGPSVFLFPPKPKDTLMISRTPEVTCVVVDVSHEDPEVKFNWYVDGVEVHNAKTKPREEQYNSTYRVVSVLTVLHQDWLNGKEYKCKVSNKALGAPIEKTISKAKGQPREPQVYTLPPSRDELTKNQVSLTCLVKGFYPSDIAVEWFYGASKENNYKTTPPVLDSDGSFFLYSKLTVDKSRWQQGNLFACEVMHEALHNHYTYKLLSLSPGK
notes: bivalent; P329G+LALA
Take B5: the dissociation constant (Kd) in test [1] was determined as 0.633 µM; in test [2], 3.04 µM.

B6: 42.8.118 (Fc fusion)
chain: APEAAGGPSVFLFPPKPKDTLMISRTPEVTCVVVDVSHEDPEVKFNWYVDGVEVHNAKTKPREEQYNSTYRVVSVLTVLHQDWLNGKEYKCKVSNKALGAPIEKTISKAKGQPREPQVYTLPPSRDELTKNQVSLTCLVKGFYPSDIAVEWFYGGSKLNNYKTTPPVLDSDGSFFLYSKLTVDKSRWQQGNLFACEVMHEALHNHYTYKLLSLSPGK
notes: bivalent; P329G+LALA
For B6, the Kd in test [1] stood at 0.867 µM; in test [2], 4.29 µM.

B7: 42.8.113 (Fc fusion)
chain: APEAAGGPSVFLFPPKPKDTLMISRTPEVTCVVVDVSHEDPEVKFNWYVDGVEVHNAKTKPREEQYNSTYRVVSVLTVLHQDWLNGKEYKCKVSNKALGAPIEKTISKAKGQPREPQVYTLPPSRDELTKNQVSLTCLVKGFYPSDIAVEWFYGGQKLTNYKTTPPVLDSDGSFFLYSKLTVDKSRWQQGNLFACEVMHEALHNHYTYKLLSLSPGK
notes: bivalent; P329G+LALA
For the molecule B7, the results for the equilibrium dissociation constant (Kd) in test [1] and in test [2] were 1.61 µM and 34.3 µM, respectively.

B8: 42.8.110 (Fc fusion)
chain: APEAAGGPSVFLFPPKPKDTLMISRTPEVTCVVVDVSHEDPEVKFNWYVDGVEVHNAKTKPREEQYNSTYRVVSVLTVLHQDWLNGKEYKCKVSNKALGAPIEKTISKAKGQPREPQVYTLPPSRDELTKNQVSLTCLVKGFYPSDIAVEWFYGGQKETNYKTTPPVLDSDGSFFLYSKLTVDKSRWQQGNLFACEVMHEALHNHYTYKLLSLSPGK
notes: bivalent; P329G+LALA
On to B8, for which the Kd is 1.76 µM in test [1] and 15.8 µM in test [2].

(Values after patent US20250145729A1 (DENALI THERAPEUTICS, published 2025).)
